{"source": "paper PMC6981184", "key": {"soluble CD4": {"target": "soluble CD4 (UniProt P01730)", "test": "SPR"}, "[1]": {"target": "BG505 N332 SOSIP gp140 envelope trimer (unmutated BG505 SOSIP) (HIV-1 (clade A, BG505))", "test": "negative-stain electron microscopy"}, "soluble CD4 (sCD4)": {"target": "soluble CD4 (sCD4) (UniProt P01730)", "test": "SPR"}}, "data": [{"substance": "BG505 N332 SOSIP gp140 envelope trimer (unmutated BG505 SOSIP) (complex)", "values": [{"measurement": "Kd", "setting": "soluble CD4", "value": 67.9, "unit": "nM"}, {"measurement": "stoichiometry N", "setting": "[1]", "value": 3}]}, {"substance": "BG505 SOSIP.664 (unmutated BG505 N332 SOSIP gp140 trimer) (complex)", "values": [{"measurement": "koff", "setting": "soluble CD4 (sCD4)", "value": 0.00061, "unit": "s⁻¹"}, {"measurement": "kon", "setting": "soluble CD4 (sCD4)", "value": 11200, "unit": "M⁻¹ s⁻¹"}]}]}
